Measurements from PMC5342261.

Tests used:
HJ16 = assay: ELISA
CH98 = assay: ELISA
VRC01 [1] = assay: ELISA
PGV04 = assay: yeast display
VRC01 [2] = assay: yeast display
B6 = assay: yeast display
B12 = assay: yeast display

Row | Substance | percent of parent (HJ16) [%] | percent of parent (CH98) [%] | percent of parent (VRC01 [1]) [%] | percent of parent (PGV04) [%] | percent of parent (VRC01 [2]) [%] | percent of parent (B6) [%] | percent of parent (B12) [%]
1 | AE.A244gp120 D368R | 98 | 0 | 23 | – | – | – | –
2 | AE.A244gp120 I371del; P363N | 80 | 0 | – | – | – | – | –
3 | AE.A244gp120 N276A | – | 0 | 51 | – | – | – | –
4 | AE.A244gp120 T278A | 13 | 19 | 96 | – | – | – | –
5 | B.YU2gp120 core (ΔV1, V2, V3 loops) D368R | – | – | – | 7 | 13 | 53 | –
6 | B.YU2gp120 core (ΔV1, V2, V3 loops) D397F | – | – | – | – | 73 | 94 | 91
7 | B.YU2gp120 core (ΔV1, V2, V3 loops) E269G | – | – | – | 83 | 82 | 75 | 95
8 | B.YU2gp120 core (ΔV1, V2, V3 loops) G327R | – | – | – | 89 | 95 | 95 | 90
9 | B.YU2gp120 core (ΔV1, V2, V3 loops) G434K | – | – | – | 85 | 85 | 85 | 76
10 | B.YU2gp120 core (ΔV1, V2, V3 loops) G459E | – | – | – | 8 | 28 | 99 | 105
11 | B.YU2gp120 core (ΔV1, V2, V3 loops) G473R | – | – | – | 17 | 19 | 78 | 113
12 | B.YU2gp120 core (ΔV1, V2, V3 loops) H216Y | – | – | – | 96 | 104 | 99 | 108
13 | B.YU2gp120 core (ΔV1, V2, V3 loops) I467K | – | – | – | 43 | 48 | 93 | 51
14 | B.YU2gp120 core (ΔV1, V2, V3 loops) K121T | – | – | – | 73 | 80 | 102 | 100
15 | B.YU2gp120 core (ΔV1, V2, V3 loops) K231T | – | – | – | – | 74 | 94 | 98
16 | B.YU2gp120 core (ΔV1, V2, V3 loops) K282V | – | – | – | 74 | 50 | 61 | 51
17 | B.YU2gp120 core (ΔV1, V2, V3 loops) K490S | – | – | – | – | 75 | – | 89

Row | Substance | percent of parent (HJ16) [%] | percent of parent (CH98) [%] | percent of parent (VRC01 [1]) [%] | percent of parent (PGV04) [%] | percent of parent (VRC01 [2]) [%] | percent of parent (B6) [%] | percent of parent (B12) [%]
18 | B.YU2gp120 core (ΔV1, V2, V3 loops) L265R | – | – | – | 79 | 88 | 85 | 91
19 | B.YU2gp120 core (ΔV1, V2, V3 loops) L405D | – | – | – | 104 | 109 | 99 | 80
20 | B.YU2gp120 core (ΔV1, V2, V3 loops) N197K | – | – | – | 86 | 86 | 93 | 89
21 | B.YU2gp120 core (ΔV1, V2, V3 loops) Q337V | – | – | – | 89 | 91 | 87 | 88
22 | B.YU2gp120 core (ΔV1, V2, V3 loops) Q344V | – | – | – | 79 | 82 | 96 | 94
23 | B.YU2gp120 core (ΔV1, V2, V3 loops) Q442V | – | – | – | 92 | 97 | 95 | 72
24 | B.YU2gp120 core (ΔV1, V2, V3 loops) R403V | – | – | – | 94 | 99 | 96 | 76
25 | B.YU2gp120 core (ΔV1, V2, V3 loops) R412V | – | – | – | 100 | 104 | 99 | 87
26 | B.YU2gp120 core (ΔV1, V2, V3 loops) R419G | – | – | – | 65 | – | 98 | 13
27 | B.YU2gp120 core (ΔV1, V2, V3 loops) R476V | – | – | – | 91 | 62 | 13 | 97
28 | B.YU2gp120 core (ΔV1, V2, V3 loops) S365K | – | – | – | 8 | 31 | 97 | 28
29 | B.YU2gp120 core (ΔV1, V2, V3 loops) S446K | – | – | – | 104 | 108 | 100 | 113
30 | B.YU2gp120 core (ΔV1, V2, V3 loops) T240K | – | – | – | 88 | 92 | 95 | 101
31 | B.YU2gp120 core (ΔV1, V2, V3 loops) T278K | – | – | – | 122 | 196 | 98 | 89
32 | B.YU2gp120 core (ΔV1, V2, V3 loops) T455E | – | – | – | 31 | 49 | 92 | 14
33 | B.YU2gp120 core (ΔV1, V2, V3 loops) V200K | – | – | – | 96 | 99 | 90 | 94
